Assay: soluble on expression in E. coli; label from the status in PepcDB or PDB records

Sequence	soluble on expression in E. coli
GVTGVTTGFTDLDKKTAGLQPSDLIIVAARPSMGKTTFAMNLCENAAMASEKPVLVFSLEMPAEQIMMRMIASLARVDQTKIRTGQNLDEIEWNKIASVVGMFKQKNNLFIDDSSGLTPTDVRSRARRVYRENGGLSMIMVDYLQLMRAPAFSDNRTLEIAEISRSLKALAKELQVPVVALSQLNRTLEQRGDKRPVNSDL	not soluble
HAIFERHENDLHCEVPISFATAALGGSIEVPTLEGRVTLKIPAETQTGKVFRLRSKGMKSVRGYGQGDLLCKVVVETPVNLSREQKELLNKLQDSLENAKGTH	not soluble
HGPASRLLHRHIREQLKDLKEVSHESLVVGAVENAFQLMDEQMARERRGHQVEGGCCALVVIYLLGKVYVANAGDSRAIIVRNGEIIPMSREFTPETERQRLQLLGFLKPELLGSEFTHLEFPRRVLPKELGQRMLYRDQNMTGWAYKKIELEDLRFPLVCGEGKKARVMATIGVTRGLGDHSLKVCSSTLPIKPFLSCFPEVRVYDLTQYEHCPDDVLVLGTDGLWDVTTDCEVAATVDRVLSAYEPNDHSRYTALAQALVLGARGTPRDRGWRLPNNKLGSGDDISVFVIPLGGPGSYSVRASSPSPL	not soluble
HGYVESPASRAYQCKLQLNTQCGSVQAEPQSVEGLKGFPQAGPADGHIASADKSTFFELDQQTPTRWNKLNLKTGPNSFTWKLTARHSTTSWRYFITKPNWDASQPLTRASFDLTPFCQFNDGGAIPAAQVTHQCNIPADRSGSHVILAVWDIADTANAFYQAIDVNLSK	soluble
HHHHHHGCMSGRKPIIGVMGPGKADTAENQLVMANELGKQIATHGWILLTGGRSLGVMHEAMKGAKEAGGTTIGVLPGPDTSEISDAVDIPIVTGLGSARDNINALSSNVLVAVGMGPGTAAEVALALKAKKPVVLLGTQPEAEKFFTSLDAGLVHVAADVAGAIAAVKQLLAKLN	soluble
HHHHHHGSMTIKPLRKAVFPVAGLGTRFLPATKAMPKEMLPVVDRPLIQYAVDEAVEAGIEQMIFVTGRGKSALEDHFDIAYELEATMAARGKSLDVLDGTRLKPGNIAYVRQQEPMGLGHAVWCARDIVGDEPFAVLLPDDFMFGQPGCLKQMVDAYNKVGGNLICAEEVPDDQTHRYGIITPGTQDGVLTEVKGLVEKPAPGTAPSNLSVIGRYILQPEVMRILENQGKGAGGEIQLTDAMQRMIGDQPFHGVTFQGTRYDCGDKAGFIQANLAVALSRPDLEPAVRAFAVKALG	soluble
HHHHHHPEIVDTCSLASPASVCRTKHLHLRCSVDFTRRTLTGTAALTVQSQEDNLRSLVLDTKDLTIEKVVINGQEVKYALGERQSYKGSPMEISLPIALSKNQEIVIEISFETSPKSSALQWLTPEQTSGKEHPYLFSQCQAIHCRAILPCQDTPSVKLTYTAEVSVPKELVALMSAIRDGETPDPEDPSRKIYKFIQKVPIPCYLIALVVGALESRQIGPRTLVWSEKEQVEKSAYEFSETESMLKIAEDLGGPYVWGQYDLLVLPPSFPYGGMENPCLTFVTPTLLAGDKSLSNVIAHEISHSWTGNLVTNKTWDHFWLNEGHTVYLERHICGRLFGEKFRHFNALGGWGELQNSVKTFGETHPFTKLVVDLTDIDPDVAYSSVPYEKGFALLFYLEQLLGGPEIFLGFLKAYVEKFSYKSITTDDWKDFLYSYFKDKVDVLNQVDWNAWLYSPGLPPIKPNYDMTLTNACIALSQRWITAKEDDLNSFNATDLKDLSSHQLNEFLAQTLQRAPLPLGHIKRMQEVYNFNAINNSEIRFRWLRLCIQSKWEDAIPLALKMATEQGRMKFTRPLFKDLAAFDKSHDQAVRTYQEHKASMHPVTAMLVGKDLKVD	soluble
HHHHHHSSGLVPRGSHMSVKKAGVLGATGSVGQRFILLLSKHPEFEIHALGASSRSAGKKYKDAASWKQTETLPETEQDIVVQECKPEGNFLECDVVFSGLDADVAGDIEKSFVEAGLAVVSNAKNYRREKDVPLVVPIVNPEHIDVVENKVKQAVSKGGKKPGFIICISNCSTAGLVAPLKPLVEKFGPIDALTTTTLQAISGAGFSPGVSGMDILDNIVPYISGEEDKLEWETKKILGGVNAEGTEFVPIPESEMKVSAQCNRVPVIDGHTECISLRFANRPAPSVEDVKQCLREYECAASKLGCHSAPKQTIHVLDQPDRPQPRLDRDRDSGYGVSVGRIREDSLLDFKMVVLSHNTIIGAAGAGILIAEILKAKNII	soluble
HISLNPDLANEDEVNSCDYWRHCAVDGFLCSCCGGTTTTCPPGSTPSPISWIGTCHNPHDGKDYLISYHDCCGKTACGRCQCNTQTRERPGYEFFLHNDVNWCMANENSTFHCTTSVLVGLAKN	soluble
HKDFTWNTTLSATWSKEKIDKLPDGDLISENLFTGEPIHAIYGYKYAGIWGSDTPKETLDAYGVNPGFIKIETVDKNGDGGVHKYSTDDRQILGHTNPDWIIGLNNSFTYKNFDLSVFAMARYGQTINSDLLGYYTAEQSVTKNQLAGVDYWTEDNQGAYFPRPGTGDEQKTVYPSLRVHDGSFIKIKNITLGYTLPANISRKVLMEKCRIYATAYNPFIFVKDKQLKDTDPETNGSDAFPTYRQFVFGVNLTF	not soluble
HMPSVIVVGGQWGDEGKGSIVAYLSLHDEPEIIARGGVGTNAGHSVVINGKKYAVRQIPTGFMQTKARLLIGAGVLVDPEVFFHELEQLKDFNVKDRVGIDYRCAIIEEKHKQLDRTNGYLHGKIGTTGSGCGPANADRVMRKAKQAKDVKELEPYLTDVAQEINDALDEGSLVLVEGTQGFGLSLYYGTYPYVTSKDVTASSVAADVGIGPTRVDEVIVVFKSFPTRVGAGPFPTEMPMEEADRLGLVEYGTVTGRRRRVGWFDFEMARYSARINGATMLAVTMLDKYDKEAFGVTDYDKLPRKAKEFIEEIEERVGVPVGLIKTGPELEHIIDRRDTI	soluble
HPMCKEHEDEKINIYCLTCEVPTCSMCKVFGIHKACEVAPLQSVFQGQKTE	soluble
HQQLNSLPTMEGPPTFNPPVPYFGRLQGGLTARRTIIIKGYVPPTGKSFAINFKVGSSGDIALHINPRMGNGTVVRNSLLNGSWGSEEKKITHNPFGPGQFFDLSIRCGLDRFKVYANGQHLFDFAHRLSAFQRVDTLEIQGDVTLSYVQI	soluble
HRPKRIESAVISSFSPVINSPMRDYLGKGLDHLATHSRYDMGRLINDTIGKHLPSLFKRFNYRHVSTLDGHEYDQMHYHFSQILELDPDNYLTAGQQIKAPVLFINGAWDEYTSASDATQFSRYLQNCSFSTIEATGHFLDMEHKAACNDSKQALMKFLQ	not soluble
HVGYPLLLKWLPLKPKANDEGEHFAERHYKASASDNKLPSVTIIIPAYNEEQWIAEKIRNLASLDYPRDKLKVVIACDGCTDKTAEIAQDTIQEAICSDTLFIVNDHSINRGKVALINEEMKHVTSDITALSDTSALVSCDSLLLASQHYQNEKVGVVNATYQIMRTSNQGEAAYWQYQSRVKHQESLLGSTIGSHGAFYTFRTKLFEPLEAGTINDDFILPMRIVLRGFTSVYEPKMLALELEQSSDDADFKRRLRISAGNMQQLMQLKKLLLPRYRGTAFAFLSGKVLR	not soluble
IEEGKIVFAVGGAPNEIEYWKGVIAEFEKKYPGVTVELKRQATDTEQRRLDLVNALRGKSSDPDVFLMDVAWLGQFIASGWLEPLDDYVQKDNYDLSVFFQSVINLADKQGGKLYALPVYIDAGLLYYRKDLLEKYGYSKPPETWQELVEMAQKIQSGERETNPNFWGFVWQGKQYEGLVCDFVEYVYSNGGSLGEFKDGKWVPTLNKPENVEALQFMVDLIHKYKISPPNTYTEMTEEPVRLMFQQGNAAFERNWPYAWGLHNADDSPVKGKVGVAPLPHFPGHKSAATLGGWHIGISKYSDNKALAWEFVKFVESYSVQKGFAMNLGWNPGRVDVYDDPAVVSKSPHLKELRAVFENAVPRPIVPYYPQLSEIIQKYVNSALAGKISPQEALDKAQKEAEELVKQYS	soluble
IEVAAIQGNVPRMGLDFNAQRRAVLANHARETLKLDEQVDLVIWPENSSDVNPFSDAQARAIIDGAVEHVQAPILVGTITVDEVGPRNTMQVFDPVEGAAEYHNKKFLQPFGEYMPFREFLRIFSPYVDSAGNFQPGDGTGVVEMNAANLGRAVTVGVMTCYEVIFDRAGRDAIANGAEFLTTPTNNATFGFTDMTYQQLAMSRMRAIEFDRAVVVAATSGVSAIVNPDGSISQNTRIFEAATLTESIPLKDTVTIAARVGFY	not soluble
IHDDPVEQRDADVAMEKSHRARNERKKNKNHTPSEHPAAAAMHEEKKKVSIEDLVAAVVIEDDPQPEPDVVPTPADDDVMDIVSAALDRAYEEDPDEPSGSDYLPLEEKPQTYAEAVEEFERSPRRKRKTRGNSVSDVPPRKADFEKPEPQPEPEVVVEKVSSRGRRRAVRRTVVEATPEVVAPTETVESSRGRRRAVRKKMAPQPVQTEAVVEDKHEVSAPSQGGRGRRRASRRAPRR	not soluble
IIGGREVIPHSRPYMASLQRNGSHLCGGVLVHPKWVLTAAHCLAQRMAQLRLVLGLHTLDSPGLTFHIKAAIQHPRYKPVPALENDLALLQLDGKVKPSRTIRPLALPSKRQVVAAGTRCSMAGWGLTHQGGRLSRVLRELDLQVLDTRMCNNSRFWNGSLSPSMVCLAADSKDQAPCKGDSGGPLVCGKGRVLAGVLSFSSRVCTDIFKPPVATAVAPYVSWIRKVTGRSALEHHHHHH	soluble
IKPGAKMGVIGSGIASVYAKEALQELGLEASFLKIGTYPVPKKLILELLSTVDTVLIFEELEPVVEEQVRILAQEAGLEVSVLGKEGGFVSREGELDVSAFLEALRKAFDLDIEPDSGKVPLELAPRPPSLCAGCSHRATFYSMKKVFGKDAIYPSDIGCYTLGIQSGTVETTLCMGSSISIASGLYHAGEKRPICCSIGDSTFFHTGMNSLLNAVFNKANITVTILDNRITAMTGHQPNPGVGFTVTGEPTVEVSLAELCKAMGAGFVTVV	not soluble
IPIPSALEARLDAYVALLQQWQAKTNLVAPSTLPQLWTRHVADSLQLVSLMPHARRWLDFGSGGGFPGVVLACAMADVGGHVTLVERIAKKAAFLREALRVAGAPGTVILADIGDNVDRFPQALDCITARAVAPLHQLIGFAEPLMTPGTTKALFLKGQDVDAELTETTKYWKFQPKLHASVTGGQGWIVEIDHIER	not soluble
IQLQQATQLHFSELGKLLDDLRVEKHINEVRLKLTPSFAFKWLVPKLESFQLENPEIQVQIFAEGALVNSDLKDYDVAIDYGLHPYRDHDAELILDEKLLPVMSPKYLEDHRWLKTPFGDQTSSMSANQWQAATLLHDAMPWEKATRDYEWLYWASAMGFDFKTDVGHFFNRTDMAMSAAEAGVGIAMARMALIEDELTTKRLVSPFAPIPANAGYYLIMNTRSQSTERFREWLLKQIESRR	not soluble
IRNVGITFETRPDWAREEHVDEFLRLGGTKVEIGVQSVYDFVLSRMQRGHGVAEIVRANRVLRDSAFKVGFHMMPHLPGADSELDLRGFKKLFDDQRFRPDYLKIYPTLVTEGTPLYRMWKSGEYQALSDEEAAELVADIKAVLPKWVRLQRIQRDIPAHQIFAGVR	not soluble
IRRVLVPVDTSEERARNQAKYLTSLPNIPDSVEATVLFVFPHQDYKGAPSHDFEEVDAAVTAAEHLEAKGISVERVAVGGEVGRKILDAATDRDADSIVIGGRKRSGIANVLLGGTTQDIMLAAERPVTLTG	not soluble
IVGGKVCPKGECPWQVLLLVNGAQLCGGTLINTIWVVSAAHCFDKIKNWRNLIAVLGEHDLSEHDGDEQSRRVAQVIIPSTYVPGTTNHDIALLRLHQPVVLTDHVVPLCLPERTFSERTLAFVRFSLVSGWGQLLDRGATALELMVLNVPRLMTQDCLQQSRKVGDSPNITEYMFCAGYSDGSKDSCKGDSGGPHATHYRGTWYLTGIVSWGQGCATVGHFGVYTRVSQYIEWLQKLMRSEPRPGVLLRAPFP	soluble

Source: the DeepSol protein solubility set
